± gives the standard deviation of the averaged measurements.
Experiments:
[1] = tested on: VchCAST RNA-guided transposition machinery (E. coli BL21(DE3) host, lacZ target); assay: relative integration efficiency (T-RL orientation) vs wild-type transposon end (log2 (normalized fold change)); transposon end mutated: right end (5 bp flank + 75 bp right end); higher = more efficient transposition
Method in brief: (§1)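 Co-transformation of E. coli BL21(DE3) combined a pUC57 mini-transposon donor, holding barcoded pools of 1549 left-end or 1849 right-end variants, with a T7-driven plasmid encoding a CRISPR array, tniQ-cas8-cas7-cas6 and tnsA-tnsB-tnsC. After plating with 0.1 mM IPTG at 37°C for 18 h, input plasmids and genomic integration junctions were PCR-amplified and Illumina-sequenced across two biological output replicates, with four reference barcodes. Relative integration efficiency is the normalised, log-transformed output/input barcode fold change.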

[2] = tested on: VchCAST RNA-guided transposition machinery (E. coli BL21(DE3) host, lacZ target); assay: relative integration efficiency (T-LR orientation) vs wild-type transposon end (log2 (normalized fold change)); transposon end mutated: right end (5 bp flank + 75 bp right end); higher = more efficient transposition
Method in brief: as §1

Sequence | relative integration efficiency (log2) [1] | relative integration efficiency (log2) [2]
ACATTTGTTGATACAACCCGCCAATGATAATTACACCCATAAATTGATAATTATCACACCCATAAATTGATATTGCCTCTGATCATAGTCAGACCAACATTGCTACGACCCGTATTCGCACCGACAC | -4.28 ± 0.2 | -3.85 ± 0.3
ACATTTGTTGATACAACCCTAAAATGATAATTACACCCATAAATGGATAATTATCACACCCAATTTAACTATAACGCTCTGATCATAGTCAGACCAACATTGCTACGACCCGTATTCGCACCGACAC | -3.06 ± 0.29 | -0.403 ± 0.044
ACATTTGTTGATACAACCCTAAAATGATAATTACACCCATAAATGGATAATTATCACCCCCAATTTAACTATAACGCTCTGATCATAGTCAGACCAACATTGCTACGACCCGTATTCGCACCGACAC | -3.24 ± 0.23 | -0.791 ± 0.11
ACATTTGTTGATACAACCCTAAAATGATAATTACACCCATAAATGGATCATTATCACACCCAATTTAACTATAACGCTCTGATCATAGTCAGACCAACATTGCTACGACCCGTATTCGCACCGACAC | -3.87 ± 0.32 | -1.52 ± 0.39
ACATTTGTTGATACAACCCTAAAATGATAATTACACCCATAAATGGATCATTATCACCCCCAATTTAACTATAACGCTCTGATCATAGTCAGACCAACATTGCTACGACCCGTATTCGCACCGACAC | -4.22 ± 0.58 | -1.44 ± 0.036
ACATTTGTTGATACAACCCTAAAATGATAATTACACCCATAAATTCATAATTATCACACCCAATTTAACTATAACGCTCTGATCATAGTCAGACCAACATTGCTACGACCCGTATTCGCACCGACAC | -4.59 ± 0.4 | -1.75 ± 0.15
ACATTTGTTGATACAACCCTAAAATGATAATTACACCCATAAATTCATAATTATCACCCCCAATTTAACTATAACGCTCTGATCATAGTCAGACCAACATTGCTACGACCCGTATTCGCACCGACAC | -4.15 ± 0.4 | -1.67 ± 0.083
ACATTTGTTGATACAACCCTAAAATGATAATTACACCCATAAATTCATCATTATCACACCCAATTTAACTATAACGCTCTGATCATAGTCAGACCAACATTGCTACGACCCGTATTCGCACCGACAC | -4.59 ± 0.18 | -1.57 ± 0.23
ACATTTGTTGATACAACCCTAAAATGATAATTACACCCATAAATTCATCATTATCACCCCCAATTTAACTATAACGCTCTGATCATAGTCAGACCAACATTGCTACGACCCGTATTCGCACCGACAC | -4.72 ± 0.23 | -1.49 ± 0.085
ACATTTGTTGATACAACCCTAAAATGATAATTACACCCATAAATTGATAATTATCACCCCCAATTTAACTATAACGCTCTGATCATAGTCAGACCAACATTGCTACGACCCGTATTCGCACCGACAC | -1.61 ± 0.24 | 1.5 ± 0.089
ACATTTGTTGATACAACCCTAAAATGATAATTACACCCATAAATTGATCATTATCACACCCAATTTAACTATAACGCTCTGATCATAGTCAGACCAACATTGCTACGACCCGTATTCGCACCGACAC | -3 ± 0.31 | 0.357 ± 0.061
ACATTTGTTGATACAACCCTAAAATGATAATTACACCCATAAATTGATCATTATCACCCCCAATTTAACTATAACGCTCTGATCATAGTCAGACCAACATTGCTACGACCCGTATTCGCACCGACAC | -2.81 ± 0.49 | 0.404 ± 0.19
ACATTTGTTGATACAACCCTAAAATGATAATTACACCCCTAAATTGATAATTATCACACCCCTAAATTGATATTGCCTCTGATCATAGTCAGACCAACATTGCTACGACCCGTATTCGCACCGACAC | -4.68 ± 0.11 | -3.01 ± 0.1
ACATTTGTTGATACAACCTAAAAATGATAATTACACCCATAAATTGATAATTATCACACCCATAAATTGATATTGCCTCTGATCATAGTCAGACCAACATTGCTACGACCCGTATTCGCACCGACAC | -0.616 ± 0.0067 | -0.819 ± 0.32
ACATTTGTTGATACAACCTATTAATGATAATTACACCCATAAATTGATAATTATCACACCCATAAATTGATATTGCCTCTGATCATAGTCAGACCAACATTGCTACGACCCGTATTCGCACCGACAC | -0.905 ± 0.052 | -1.46 ± 0.16
